Test results taken from PMC10689493 (Nature Communications, 2023).

T1: S2hlx-Ex19 epitope scaffold (synthetic design (Mus musculus VPS54 …))
T1 construct: source: E. coli BL-21 (DE3), purified (Ni-NTA, SEC)
T1 chain: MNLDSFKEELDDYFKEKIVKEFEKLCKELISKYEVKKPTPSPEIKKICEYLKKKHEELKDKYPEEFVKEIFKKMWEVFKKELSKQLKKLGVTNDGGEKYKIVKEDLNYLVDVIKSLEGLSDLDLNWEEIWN

T2: synthesized stem helix peptide (1140-1164) (SARS-CoV-2, UniProt P0DTC2)
T2 chain: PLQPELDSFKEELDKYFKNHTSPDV

T3: S2hlx-7 epitope scaffold (synthetic design (Rhodopseudomonas …))
T3 construct: source: E. coli BL-21 (DE3), purified (Ni-NTA, SEC)
T3 chain: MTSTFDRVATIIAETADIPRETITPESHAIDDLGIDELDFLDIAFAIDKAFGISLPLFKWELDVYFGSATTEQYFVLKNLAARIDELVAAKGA

B1: DH1501.1 (antibody, V domains shown)
VH: EVQLVESGAEVKKPGASVRVSCKASGFTFTDHYMHWVRQAPGQGLEWMGLINPTGVNTFYAQNFRGRVTMTRDTSTKTDYLEVRSLTSQDTAMYYCARMSRYGAFDIWGQGTMVTVSL
VL: EIVLTQSPGTLSLSPGERATLSCRASQSVGSGYLAWYQQKPGQAPRLLIYGASVRATGIPDRFSGSGSGTDFSLTINRVEPEDFAMYYCQNYGSSPPRYTFGQGTKLEIK
B2: DH1501.2 (antibody, V domains shown)
VH: EVQLVESGAEVKKPGASVRLSCKASGDTFNNKYVHWVRQAPGQGLEWMGLINPSGSGTAFAQKFQGRVSMTRDTSTRTVYLGLTSLTYEDTAVYYCARMSRAGTFDIWDQGTMVTVSS
VL: EIVLTQSPGTLSLSPGDRATLSCRASENVGTSYLAWYQQKPGQAPRLLISGTSSRATGVPDRFSGSGSGRDFTLTISRLEPEDFAVYYCQQYGSSPPRYTFGQGTKLDMK
B3: DH1501.3 (antibody, V domains shown)
VH: QVQLVQSGAEVKKPGASVRLSCKASGDTFTNEYVQWVRQAPGQGLEWMGLINPSGSGTAFARNFQGRVSMTRDTSTRTVYMDLTSLRYEDTAVYYCARMSRAGTFDLWGQGTMVTVSS
VL: EIVLTQSPDTLSLSLGERATLFCRASETIDSRYLAWYQQKPGRAPRLLMSGTSVRATGIPDRFSGSGSGTDFTLTITRLEPEDFAVYYCQQYGSSPPRYTFGQGTKLAMK
B4: S2P6 mAb (antibody, V domains shown)
VH: EVQLVQSGAEVKKPGASVKVSCKASGYTFTSQYMHWVRQAPGQGLEWIGIINPSGVHTSYAQKFQGRVTLTRDTSTSTLYMELSSLRSEDTAVYYCARGSPKGAFDYWGQGTLVTVSS
VL: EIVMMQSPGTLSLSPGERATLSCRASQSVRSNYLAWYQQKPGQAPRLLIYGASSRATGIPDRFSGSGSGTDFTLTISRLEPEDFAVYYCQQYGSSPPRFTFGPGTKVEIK
notes: IgG; IGHV1-46/IGKV3-20; source: Expi293F, transfected, purified (Protein A)
B5: CC40.8 mAb (antibody, V domains shown)
VH: EVQLLESGGGLVQPGGSLRLSCAASGFTFSSYVMTWARQAPGKGLEWVSAISGTGYTYYADSVKGRFTVSRDNSKNTLFLQMSSLRAEDTAVYYCAITMAPVVWGQGTTVTVSS
VL: SYELTQPPSVSVSPGQTARITCSGDALPKRYAYWYQQKSGQAPILVIYEDKKRPSGIPERLSGSKSGTVATLTISGAQVEDEADYYCYSTDSSGNHAVFGGGTQLTVL
notes: IgG; source: Expi293F, transfected, purified (Protein A)
B6: DH1057.1 mAb (antibody, V domains shown)
VH: EVQLVESGTEVKKPGASVKVSCKTSGYIFTNYYIHWVRQAPGQGLEWMGIFNPNGGGTSYAQKFQGRITLTGNTSANTGYMVLRSLTSEDTAVYYCARDPRTSGDNDGFDMWGQGTKVTVSS
VL: VLTQSPATLSLSPGERATLSCRASQSLSSYNYLAWYQQKPGQAPRLLIYAASKRATGIPARFSGSGSGTDFTLTISSLEPEDFAVYFCQQRSNRPPAWTFGQGTKVEIK
notes: source: Expi293F, transfected, purified (Protein A)

What was measured:
[1] = biological target: biotinylated SARS-CoV-2 Spike protein (WA-2, 2 P) (SARS-CoV-2 WA-2 (entry: reference …, UniProt P0DTC2, stabilised, biotinylated))
[2] = biological target: OC43 Spike protein, 2 P (human coronavirus OC43, isolate not …, UniProt P36334, stabilised); experiment: ELISA; conditions: both partners purified
[3] = biological target: T4, synthesized SARS-CoV-2 stem helix peptide (residues 1147-1161) (SARS-CoV-2, UniProt P0DTC2); experiment: ELISA; conditions: both partners purified
T4 construct: source: synthetic peptide

[4] = biological target: T1, S2hlx-Ex19 epitope scaffold; experiment: SPR; conditions: both partners purified
[5] = biological target: T2, synthesized stem helix peptide …; experiment: ELISA; conditions: both partners purified
[6] = biological target: T3, S2hlx-7 epitope scaffold; experiment: SPR; conditions: both partners purified

Binder	binding result [1]	binding result [2]	binding result [3]	other results
B1	binds	–	–	–
B2	binds	–	–	–
B3	binds	–	–	–
B4	–	binds	–	–
B5	–	binds	no binding	Kd [4]: 6.7 nM
B6	–	–	binds	binding result [5]: binds; fold better binding than spike [6]: > 10 fold
